Experimental findings from the Immune Epitope Database (IEDB) are described below.

What all share (assay): IEDB peptide-MHC binding, purified MHC/competitive/radioactivity; filed as Kd, often an IC50 or EC50 that approximates it; ≥ and ≤ were set here for values at or beyond the usual limits of such assays
In test [1] the target is HLA-A*02:03.
Test [2] deals with HLA-A*02:02.
In test [3] the target is HLA-A*02:06.
In test [4] the target is HLA-A*23:01.
Test [5] addresses HLA-A*30:02.
Test [6] concerns the target HLA-A*26:01.
[7] abbreviates: source organism: Vaccinia virus WR.
Where [8] appears, read: source organism: Dengue virus 4 Philippines/H241/1956.
The mark [9] stands for this setting: source organism: Dengue virus 3 Martinique/1243/1999.
The mark [10] stands for this setting: source organism: Dengue virus 2 Jamaica/1409/1983.
Setting [11] is: source organism: SARS coronavirus Tor2.
Setting [12] is: source organism: Lymphocytic choriomeningitis virus (strain Armstrong).

For orientation: Kd means the constant that tells how readily two partners part at equilibrium. In the case of YVLFVKKML, the Kd is 12000 nM in test [1] (setting [7]), no less than 31100 nM in test [2] (setting [7]) and 2540 nM in test [3] (setting [7]).
Turning to LCLIPTAMAF, the Kd in test [4] (setting [8]) worked out at 1080 nM.
For the sequence IVQLPKRGV, the Kd was determined as 8750 nM in test [1] (setting [7]), 12000 nM in test [2] (setting [7]) and 3120 nM in test [3] (setting [7]).
Take AGGLLLAAY: in test [5] (setting [8]), the Kd worked out at 59.7 nM.
With GMYYPTNDI, the figures for the Kd in test [1] (setting [7]), in test [2] (setting [7]) and in test [3] (setting [7]) were 8.71 nM, 53.1 nM and 1680 nM, respectively.
Regarding STVSQLAKRF, in test [6] (source organism: Dengue virus 1 Nauru/West Pac/1974), the Kd amounted to 3590 nM.
In the case of QNYVCKHTY, the Kd in test [5] (setting [9]) is no less than 76900 nM.
As to SSVNMISRM, in test [6] (setting [10]), the Kd came out at 1340 nM.
For LMLKATLLCV, the results for the Kd in test [1] (setting [11]), in test [2] (setting [11]) and in test [3] (setting [11]) were 20.9 nM, 3.39 nM and 63.4 nM, respectively.
For FLNGSCGSV, the Kd in test [1] (setting [11]) amounted to 0.571 nM; in test [2] (setting [11]) it was 1.05 nM; in test [3] (setting [11]), 64.5 nM.
For the sequence AVYNFATCGI, the figures for the Kd in test [1] (setting [12]), in test [2] (setting [12]) and in test [3] (setting [12]) were 7.28 nM, 25.3 nM and 25.2 nM, respectively.
Regarding AGPVSQHNY, in test [5] (setting [10]), the Kd was found to be 23.2 nM.
On to SVDFVVNGHT, for which the Kd is no less than 70400 nM in test [1] (setting [7]), no less than 70000 nM in test [2] (setting [7]) and no less than 69800 nM in test [3] (setting [7]).
In the case of MANIFRGSY, in test [5] (setting [10]), the Kd turned out to be 113 nM.
With TIFDIVSKCI, the figures for the Kd in test [1] (setting [7]), in test [2] (setting [7]) and in test [3] (setting [7]) were 94.4 nM, 198 nM and 701 nM, respectively.
In the case of AWNSLEVEDY, the Kd in test [5] (setting [10]) stood at 613 nM.
Turning to TISGNIYSAL, the Kd in test [1] (setting [7]) was 89.2 nM; in test [2] (setting [7]), 9.32 nM; in test [3] (setting [7]) it was 2670 nM.
With IMLIIFWFSL, the results for the Kd in test [1] (setting [11]), in test [2] (setting [11]) and in test [3] (setting [11]) were 14900 nM, 1540 nM and 16800 nM, respectively.
As for QVGTYGLNTF, the Kd in test [4] (setting [10]) is 790 nM.
For the sequence MLLTFLTSL, the figures for the dissociation constant Kd in test [1] (setting [11]), in test [2] (setting [11]) and in test [3] (setting [11]) were 4.84 nM, 6.21 nM and 3.63 nM, respectively.
Turning to YLSSVLLAL, the results for the Kd in test [1] (setting [11]), in test [2] (setting [11]) and in test [3] (setting [11]) were 0.308 nM, 0.144 nM and 8.16 nM, respectively.
As to EVGTNFGTI, the Kd in test [1] (setting [7]) turned out to be 1940 nM; in test [2] (setting [7]), 5760 nM; in test [3] (setting [7]), 19900 nM.
Regarding EISNMLSII, the Kd in test [6] (setting [9]) came out at 3370 nM.
In the case of VLAWLYAAV, the figures for the Kd in test [1] (setting [11]), in test [2] (setting [11]) and in test [3] (setting [11]) were 0.311 nM, 0.0967 nM and 8.79 nM, respectively.
As to YTLIYRQLT, the Kd in test [1] (setting [7]) came to 9420 nM; in test [2] (setting [7]) it was 6410 nM; in test [3] (setting [7]) it was 17600 nM.
For GIAIFNNRNL the same measures were 2040 nM, 5.12 nM and 4720 nM.
With WIKNLETYT, the Kd turned out to be 637 nM in test [1] (setting [7]), 18300 nM in test [2] (setting [7]) and 8210 nM in test [3] (setting [7]).
On to GVMYAFTTPL, for which the Kd stood at 44.4 nM in test [1] (setting [7]), 34.2 nM in test [2] (setting [7]) and 44.8 nM in test [3] (setting [7]).
As to SCDDVVFGI, the Kd in test [1] (setting [12]) is no less than 50400 nM; in test [2] (setting [12]) it was 2150 nM; in test [3] (setting [12]), 14500 nM.
With TILATLNTLI, the Kd amounted to 29.7 nM in test [1] (setting [7]), 39.5 nM in test [2] (setting [7]) and 335 nM in test [3] (setting [7]).
NIGCAVNTPV: the figures for the Kd in test [1] (setting [7]), in test [2] (setting [7]) and in test [3] (setting [7]) were 30.3 nM, 126 nM and 176 nM, respectively.
For ITFLRPVLKA the same measures were 718 nM, 3160 nM and 18000 nM.
TLALSLTFI: in test [1] (setting [8]), the Kd came out at 1.04 nM.
In the case of EISNMLNIM, the Kd in test [6] (source organism: Dengue virus 1 Singapore/S275/1990) was determined as 476 nM.
ILATLNTLIT: the Kd in test [1] (setting [7]) amounted to 12.3 nM; in test [2] (setting [7]) it was 6.95 nM; in test [3] (setting [7]) it was 629 nM.
Turning to IAMWLLLLSI, the values for the Kd in test [1] (setting [11]), in test [2] (setting [11]) and in test [3] (setting [11]) were 1900 nM, 85.8 nM and 498 nM, respectively.
For FLAHYIGTS, the Kd in test [1] (setting [9]) was determined as 10.7 nM.
For the sequence ALYKGFQFI, the Kd was found to be 3.32 nM in test [1] (setting [11]), 0.532 nM in test [2] (setting [11]) and 2.03 nM in test [3] (setting [11]).
Consider IVCIVAAVII, for which the Kd in test [1] (setting [7]) worked out at 1590 nM; in test [2] (setting [7]), 1460 nM; in test [3] (setting [7]) it was 3560 nM.
Turning to PAMSTYSDI, the Kd in test [1] (setting [7]) is no less than 20600 nM; in test [2] (setting [7]), 18300 nM; in test [3] (setting [7]), no less than 77100 nM.
For FLLPLTSLVI the same measures were 5.07 nM, 11.5 nM and 2.5 nM.
In the case of NLLLLFVTI, the Kd in test [1] (setting [11]) stood at 1600 nM; in test [2] (setting [11]) it was 436 nM; in test [3] (setting [11]), 456 nM.
In the case of VDYMPVMKRY, the Kd in test [5] (setting [8]) was 76.4 nM.
For the sequence EKMEALQRKY, the Kd in test [6] (source organism: Dengue virus 2 16681-PDK53) is 6380 nM.
